Laboratory results: the supplement of paper PMC11246515
± gives the standard deviation of the averaged measurements.

Test: total protein half-life in vivo (active degradation + dilution); higher = more stable protein
[1] = E. coli NCM3722 delta-clpP delta-lon delta-hslV, growth: N-lim chemostat, doubling time 6 h
[2] = E. coli NCM3722 delta-clpP, growth: N-lim chemostat, doubling time 6 h
[3] = E. coli NCM3722 delta-hslV, growth: N-lim chemostat, doubling time 6 h
[4] = E. coli NCM3722 delta-lon, growth: N-lim chemostat, doubling time 6 h
[5] = E. coli NCM3722 delta-smpB, growth: N-lim chemostat, doubling time 6 h
[6] = wild type E. coli NCM3722, growth: C-lim chemostat, doubling time 3 h
[7] = wild type E. coli NCM3722, growth: C-lim chemostat, doubling time 6 h
[8] = wild type E. coli NCM3722, growth: C-lim chemostat, doubling time 12 h
[9] = wild type E. coli NCM3722, growth: N-lim chemostat, doubling time 6 h
[10] = wild type E. coli NCM3722, growth: N-lim chemostat, doubling time 12 h
[11] = wild type E. coli NCM3722, growth: P-lim chemostat, doubling time 6 h
[12] = wild type E. coli NCM3722, growth: P-lim chemostat, doubling time 12 h

Sequence	total protein half-life in vivo [1]	total protein half-life in vivo [2]	total protein half-life in vivo [3]	total protein half-life in vivo [4]	total protein half-life in vivo [5]	total protein half-life in vivo [6]	total protein half-life in vivo [7]	total protein half-life in vivo [8]	total protein half-life in vivo [9]	total protein half-life in vivo [10]	total protein half-life in vivo [11]	total protein half-life in vivo [12]
MNIQCKRVYDPAEQSDGYRILVDRLWPRGIKKTDLALDEWDKEITPSTELRKAFHGEVVDYATFREQYLAELAQHEQEGKRLADIAKKQPLTLLYSAKNTTQNHALVLADWLRSL	6.74 ± 1.5 h	5.27 h	3.16 ± 0.34 h	4.88 ± 0.48 h	3.51 ± 0.47 h	2.37 ± 0.59 h	4.57 h	4.54 ± 0.79 h	3.27 h	4.71 h	3.11 h	5.24 ± 1.4 h
MKQYLELMQKVLDEGTQKNDRTGTGTLSIFGHQMRFNLQDGFPLVTTKRCHLRSIIHELLWFLQGDTNIAYLHENNVTIWDEWADENGDLGPVYGKQWRAWPTPDGRHIDQITTVLNQLKNDPDSRRIIVSAWNVGELDKMALAPCHAFFQFYVADGKLSCQLYQRSCDVFLGLPFNIASYALLVHMMAQQCDLEVGDFVWTGGDTHLYSNHMDQTHLQLSREPRPLPKLIIKRKPESIFDYRFEDFEIEGYDPHPGIKAPVAI [P0A884]	4.71 ± 0.41 h	4.939 ± 0.04 h	4.26 ± 0.21 h	4.54 ± 0.25 h	4.48 ± 0.38 h	3.23 ± 0.11 h	5.59 ± 0.4 h	10.3 ± 0.11 h	4.62 ± 0.15 h	7.94 ± 0.4 h	5.65 ± 0.14 h	10.4 ± 2.7 h
MAFKFKTFAAVGALIGSLALVGCGQDEKDPNHIKVGVIVGAEQQVAEVAQKVAKDKYGLDVELVTFNDYVLPNEALSKGDIDANAFQHKPYLDQQLKDRGYKLVAVGNTFVYPIAGYSKKIKSLDELQDGSQVAVPNDPTNLGRSLLLLQKVGLIKLKDGVGLLPTVLDVVENPKNLKIVELEAPQLPRSLDDAQIALAVINTTYASQIGLTPAKDGIFVEDKESPYVNLIVTREDNKDAENVKKFVQAYQSDEVYEAANKVFNGGAVKGW	5.86 ± 0.32 h	6.85 ± 0.96 h	6.15 ± 0.22 h	6.95 ± 0.8 h	5.84 ± 0.36 h	3.04 ± 0.097 h	6.52 ± 0.23 h	11.6 ± 0.54 h	5.85 ± 0.088 h	12.69 ± 0.014 h	5.99 ± 0.093 h	13 ± 0.76 h
MDICSRNKKLTIRRPAILVALALLLCSCKSTPPESMVTPPAGSKPPATTQQSSQPMRGIWLATVSRLDWPPVSSVNISNPTSRARVQQQAMIDKLDHLQRLGINTVFFQVKPDGTALWPSKILPWSDLMTGKIGENPGYDPLQFMLDEAHKRGMKVHAWFNPYRVSVNTKPGTIRELNSTLSQQPASVYVQHRDWIRTSGDRFVLDPGIPEVQDWITSIVAEVVSRYPVDGVQFDDYFYTESPGSRLNDNETYRKYGGAFASKADWRRNNTQQLIAKVSHTIKSIKPGVEFGVSPAGVWRNRSHDPLGSDTRGAAAYDESYADTRRWVEQGLLDYIAPQIYWPFSRSAARYDVLAKWWADVVKPTRTRLYIGIAFYKVGEPSKIEPDWMINGGVPELKKQLDLNDAVPEISGTILFREDYLNKPQTQQAVSYLQSRWGS	> 8 h	4.93 ± 1.2 h	1.61 h	2.787 ± 0.01 h	1.73 ± 0.075 h				1.89 ± 0.55 h	3.44 ± 0.99 h	2.29 ± 0.57 h	4.65 ± 0.26 h
MKRPALILICLLLQACSATTKELGNSLWDSLFGTPGVQLTDDDIQNMPYASQYMQLNGGPQLFVVLAFAEDGQQKWVTQDQATLVTQHGRLVKTLLGGDNLIEVNNLAADPLIKPAQIVDGASWTRTMGWTEYQQVRYATARSVFKWDGTDTVKVGSDETPVRVLDEEVSTDQARWHNRYWIDSEGQIRQSEQYLGADYFPVKTTLIKAAKQ	6.57 ± 0.37 h	6.43 h		6.59 ± 0.19 h	5.12 ± 0.2 h							
MAKERALTLEALRVMDAIDRRGSFAAAADELGRVPSALSYTMQKLEEELDVVLFDRSGHRTKFTNVGRMLLERGRVLLEAADKLTTDAEALARGWETHLTIVTEALVPTPAFFPLIDKLAAKANTQLAIITEVLAGAWERLEQGRADIVIAPDMHFRSSSEINSRKLYTLMNVYVAAPDHPIHQEPEPLSEVTRVKYRGIAVADTARERPVLTVQLLDKQPRLTVSTIEDKRQALLAGLGVATMPYPMVEKDIAEGRLRVVSPESTSEIDIIMAWRRDSMGEAKSWCLREIPKLFNGK	5.43 ± 0.44 h	5.71 ± 0.84 h	5.26 ± 0.14 h	5.85 ± 0.25 h	5.34 ± 0.25 h	3.01 ± 0.2 h	5.658 ± 0.043 h	11.2 ± 0.74 h	5.54 ± 0.4 h	10.9 ± 0.25 h	6.09 ± 0.32 h	11.5 ± 0.97 h
MNLDDIINSMMPEVYQRLSTAVELGKWPDGVALTEEQKENCLQLVMLWQARHNIEAQHMTIDTNGQMVMKSKQQLKEDFGISAKPIAMFK	4.42 ± 2.1 h	0.712 h				0.231 ± 0.0036 h	0.237 ± 0.16 h	0.116 ± 0.16 h	0.172 h		0.371 ± 0.17 h	1.17 ± 1.3 h
MKYKLLPCLLAIFLTGCDRTEVTLSFTPEMASFSNEFDFDPLRGPVKDFTQTLMDEQGEVTKRVSGTLSEEGCFDSLELLDLENNTVVALVLDANYYRDAETLEKRVRLQGKCQLAELPSAGVSWETDDNGFVIKASSKQMQMEYRYDDQGYPLGKTTKSNDKTLSVSATPSTDPIKKLDYTAVTLLNNQRVGNVKQSCEYDSHANPVDCQLIIVDEGVKPAVERVYTIKNTIDYY	2.15 ± 0.28 h	2 ± 0.022 h	2.16 ± 0.13 h	1.87 h	1.81 ± 0.19 h	1.64 ± 0.1 h	2.38 ± 0.077 h	2.85 ± 0.52 h	2.24 ± 0.56 h	2.51 ± 0.27 h	2.13 ± 0.32 h	3.98 ± 0.97 h
